The source of these data is article PMC5334639, “Nucleophosmin Interacts with PIN2/TERF1-interacting Telomerase Inhibitor 1 (PinX1) and Attenuates the PinX1 Inhibition on Telomerase Activity” (Scientific Reports, 2017).

The target of assay [1] is T1, PIN2/TERF1-interacting telomerase inhibitor 1 (PinX1), purified wild type (UniProt Q96BK5 1-328).
T1 construct: PinX1, wild type, cloned into pGEX-6p-2; GST removed by PreScission protease; PinX1-C ends at aa328; also called purified PinX1; source: E. coli BL21(DE3)-pLysS, purified (Glutathione Sepharose, gel filtration)
T1 sequence (looked up): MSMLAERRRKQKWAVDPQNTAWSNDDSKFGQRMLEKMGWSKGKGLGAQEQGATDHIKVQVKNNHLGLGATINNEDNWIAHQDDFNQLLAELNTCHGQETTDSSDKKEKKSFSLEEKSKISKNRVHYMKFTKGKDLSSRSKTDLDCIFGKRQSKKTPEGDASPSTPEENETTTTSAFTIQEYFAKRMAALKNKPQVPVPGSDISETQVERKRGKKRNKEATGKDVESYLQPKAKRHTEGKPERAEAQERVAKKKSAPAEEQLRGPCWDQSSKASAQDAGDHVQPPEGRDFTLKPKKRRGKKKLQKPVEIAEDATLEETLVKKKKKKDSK
Put plainly: pull-down; purified PinX1 (3 mg) immobilised on a 1 ml HiTrap NHS-activated column; 1 mg NPM or NPM variant in PBS, 30 min at room temperature; washed with PBS, eluted with PBS with 1.5 M NaCl; SDS-PAGE. The conditions noted are these: both partners purified.

In assay [2] the target is T2, nucleophosmin (NPM), purified wild type (UniProt P06748 1-294).
T2 construct: nucleophosmin, wild type, cloned into pRSETA-HisSumo; HisSumo tag removed by Sumo protease; Truncations end at aa294; also called wild-type NPM; purified NPM; source: E. coli BL21(DE3)-pLysS, purified (HisTrap HP, gel filtration)
The experiment in a line: pull-down; purified NPM (2 mg) immobilised on a 1 ml HiTrap NHS-activated column; 1 mg PinX1 truncation in PBS, 30 min at room temperature; washed with PBS, eluted with PBS with 1.5 M NaCl; SDS-PAGE. The conditions noted are these: both partners purified.

B1: NPM 1–123 (domain or fragment, UniProt P06748 1-123, looked up)
chain: MEDSMDMDMSPLRPQNYLFGCELKADKDYHFKVDNDENEHQLSLRTVSLGAGAKDELHIVEAEAMNYEGSPIKVTLATLKMSVQPTVSLGGFEITPPVVLRLKCGSGPVHISGQHLVAVEEDA
notes: source: E. coli BL21(DE3)-pLysS, purified (HisTrap HP, gel filtration)
As to B1, the binding result in assay [1] is reported as “binds”.

B2: PinX1-C (aa254–328), purified (domain or fragment, UniProt Q96BK5 254-328, looked up)
chain: SAPAEEQLRGPCWDQSSKASAQDAGDHVQPPEGRDFTLKPKKRRGKKKLQKPVEIAEDATLEETLVKKKKKKDSK
notes: PinX1 residues 254-328; source: E. coli BL21(DE3)-pLysS, purified (Glutathione Sepharose, gel filtration)
As for B2, the binding result in assay [2] was “binds”.
